Legend:
Experiment in all cases: IEDB peptide-MHC binding, purified MHC/direct/fluorescence; filed as Kd, often an IC50 or EC50 that approximates it; ≥ and ≤ were set here for values at or beyond the usual limits of such assays
Details in all cases: source organism: Cryptosporidium parvum Iowa II
[1] = target: HLA-A*02:16
[2] = target: HLA-A*68:02
[3] = target: HLA-B*18:01
[4] = target: HLA-A*03:01
[5] = target: HLA-A*24:03
[6] = target: HLA-A*02:12
[7] = target: HLA-B*27:03

Question: With TVFRNQNRV as the sequence, how does the Kd [1] read?
Answer: ≥ 20 µM

Question: And the Kd [2]?
Answer: ≤ 0.001 µM

Question: What about the Kd [3] of the same sequence?
Answer: ≥ 20 µM

Question: What about the Kd [4] of the same sequence?
Answer: ≥ 20 µM

Question: What about the Kd [5] of the same sequence?
Answer: ≥ 20 µM

Question: What about the Kd [6] of the same sequence?
Answer: ≥ 20 µM

Question: What about the Kd [7] of the same sequence?
Answer: ≥ 20 µM
